The results in this text go back to patent US20160024210A1 (AstraZeneca / MedImmune, published 2016).

Assay [1] concerns the target T1, human H7CR (B7-H7 counter-receptor) (human, UniProt Q96BF3 23-282).
T1 construct: Used for H7CR on CHO.hH7CR transfectants, human T cells and tonsil tissue; also called B7-H7CR; CD28H
T1 sequence: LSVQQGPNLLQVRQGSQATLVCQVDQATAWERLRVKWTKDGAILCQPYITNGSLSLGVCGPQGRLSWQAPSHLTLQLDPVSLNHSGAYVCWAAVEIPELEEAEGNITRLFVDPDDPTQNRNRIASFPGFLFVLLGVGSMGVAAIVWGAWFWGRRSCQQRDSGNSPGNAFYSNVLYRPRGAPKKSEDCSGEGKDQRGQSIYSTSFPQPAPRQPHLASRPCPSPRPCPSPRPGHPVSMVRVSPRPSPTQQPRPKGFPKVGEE
The assay is described as follows: binding to human H7CR as endogenously expressed on the surface of a cell.

The target in assay [2] is T2, H7CR-GFP fusion protein on transfected CHO cells (Homo sapiens (Human), UniProt Q96BF3 23-282).
T2 construct: not shown: GFP part
T2 sequence: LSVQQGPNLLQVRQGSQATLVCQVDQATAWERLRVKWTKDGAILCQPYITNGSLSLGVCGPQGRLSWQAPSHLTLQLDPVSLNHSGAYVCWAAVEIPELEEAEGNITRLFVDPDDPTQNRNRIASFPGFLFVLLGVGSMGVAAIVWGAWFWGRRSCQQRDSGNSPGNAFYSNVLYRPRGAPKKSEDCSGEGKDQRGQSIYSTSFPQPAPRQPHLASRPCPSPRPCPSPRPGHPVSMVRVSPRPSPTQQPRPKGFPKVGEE
The assay is described as follows: flow cytometry, 5 µg/ml variant on H7CR-GFP transfected CHO cells, anti-hIg PE secondary antibody [row HC1-2, column LC1-2]. The procedure:
(§1) 5 μg/ml antibodies from thirty-six variants were incubated with H7CR-GFP fusion protein transfected CHO cells for 30 min at room temperature. Cells were then washed twice with 2 ml flow cytometry buffer, and resuspended in 100 μl flow cytometry buffer. 1 μl anti-hIg PE secondary antibody (Biolegend) was added and incubated with the cells for 15 mins Samples were then washed and resuspended in 100 μl flow cytometry buffer. Flow Cytometry data was acquired using BD Canto (BD Biosciences) in plate format and analyzed by FlowJo software.
A general note: Flow cytometry measures light scatter and fluorescence of single cells or particles in a stream.

For assay [3], the target named is T2, H7CR-GFP fusion protein on transfected …. The assay is described as follows: flow cytometry, 5 µg/ml variant on H7CR-GFP transfected CHO cells, anti-hIg PE secondary antibody [row HC1-2, column LC1-3]. The protocol: as §1
The target is the same in assay [4]. The assay is described as follows: flow cytometry, 5 µg/ml variant on H7CR-GFP transfected CHO cells, anti-hIg PE secondary antibody [row HC1-1, column LC1-1]. The protocol: as §1
Assay [5] shares this target. The assay is described as follows: flow cytometry, 5 µg/ml variant on H7CR-GFP transfected CHO cells, anti-hIg PE secondary antibody [row HC1-2, column LC2-1]. The procedure:
as §1

Assay [6] shares this target. The assay is described as follows: flow cytometry, 5 µg/ml variant on H7CR-GFP transfected CHO cells, anti-hIg PE secondary antibody [row HC1-1, column LC2-2]. The protocol: as §1
Assay [7] has the same target. The assay is described as follows: flow cytometry, 5 µg/ml variant on H7CR-GFP transfected CHO cells, anti-hIg PE secondary antibody [row HC1-2, column LC1-1]. The protocol:
as §1

The target is the same in assay [8]. The assay is described as follows: flow cytometry, 5 µg/ml variant on H7CR-GFP transfected CHO cells, anti-hIg PE secondary antibody [row HC1-1, column LC1-3]. The procedure:
as §1

For assay [9] the target is unchanged. The assay is described as follows: flow cytometry, 5 µg/ml variant on H7CR-GFP transfected CHO cells, anti-hIg PE secondary antibody [row HC1-1, column LC2-1]. The procedure:
as §1

For assay [10] the target is unchanged. The assay is described as follows: flow cytometry, 5 µg/ml variant on H7CR-GFP transfected CHO cells, anti-hIg PE secondary antibody [row HC1-1, column LC2-3]. The procedure:
as §1

Assay [11] shares this target. The assay is described as follows: flow cytometry, 5 µg/ml variant on H7CR-GFP transfected CHO cells, anti-hIg PE secondary antibody [row HC1-1, column LC1-2]. The procedure:
as §1

Assay [12] addresses T1, human H7CR (B7-H7 counter-receptor). The assay is described as follows: flow cytometry, 5 µg/ml mAb on H7CR CHO stable transfectants [C]. The protocol:
5 μg/ml H7CR 1.3, 4.5 and 7.8 mAbs was used to stain H7CR stable transfectants to show binding specificity (FIG. 4). 10 μg/ml B7-H7mIg fusion protein was also used to stain H7CR CHO transfectants. H7CR mAbs were added to the system to evaluate the blocking capability of H7CR mAbs on B7-H7-H7CR interactions (FIG. 5). Immunohistochemistry staining for H7CR on human tonsil paraffin-embedded section was performed with 4.5 antibody at a concentration of 5 μg/ml using a standard protocol (FIG. 6). For cell surface staining and analysis by flow cytometry, cells were incubated with the indicated mAb for 30 min at 4° C., washed with buffer and analyzed. Expression of H7CR on human and mouse PBMC was evaluated by lineage marker and 1.3 antibody staining (FIG. 7-11). Expression of B7-H7 on activated monocyte-derived DC was evaluated by anti-B7-H7 antibody staining (FIG. 12).

B1: 4.5 humanized variant 8 (HC1-2 / LC1-2) (antibody, V domains shown)
VH: QVQLQESGPGLVKPSQTLSLTCTVSGFSITTGGYYWNWIRQHPGKKLEWIGYIYTSGRTSYNPSLKSRVTISRDTSKNQFSLKLSSVTAADTAVYYCADMADKGGWFAYWGQGTLVTVSS
VL: DIVMTQSPDSLAVSLGERATINCKSSQSLFSSNTKRNYLNWYQQKPGQPPKLLIYHASTRLSGVPDRFSGSGSGTDFTLTISSLQAEDVADYFCQQHYETPLTFGDGTRLEIK
notes: Variable domains only; detected with anti-hIg secondary; also called VH1B / VL1B
For the molecule B1, the binding result in assay [1] and in assay [2] was “binds” throughout.

B2: 4.5 humanized variant 9 (HC1-2 / LC1-3) (antibody, V domains shown)
VH: QVQLQESGPGLVKPSQTLSLTCTVSGFSITTGGYYWNWIRQHPGKKLEWIGYIYTSGRTSYNPSLKSRVTISRDTSKNQFSLKLSSVTAADTAVYYCADMADKGGWFAYWGQGTLVTVSS
VL: DIVMTQSPDSLAVSLGERATINCLSSQSLFSSNTKRNYLNWYQQKPGQSPKLLIYHASTRLSGVPDRFSGSGSGTDFTLTISSLQAEDVADYFCQQHYETPLTFGDGTRLEIK
notes: Variable domains only; detected with anti-hIg secondary; also called VH1B / VL1C
Turning to B2, the binding result in assay [1] and in [3] was “binds” in each case.

B3: 4.5 humanized variant 1 (HC1-1 / LC1-1) (antibody, V domains shown)
VH: QVQLQESGPGLVKPSQTLSLTCTVSGFSITTGGYYWSWIRQHPGKGLEWIGYIYTSGRTYYNPSLKSRVTISVDTSKNQFSLKLSSVTAADTAVYYCADMADKGGWFAYWGQGTLVTVSS
VL: DIVMTQSPDSLAVSLGERATINCKSSQSLFSSNTKRNYLAWYQQKPGQPPKLLIYHASTRESGVPDRFSGSGSGTDFTLTISSLQAEDVAVYYCQQHYETPLTFGQGTRLEIK
notes: Variable domains only; detected with anti-hIg secondary; also called VH1A / VL1A
Consider B3, for which the binding result in assay [1] and in [4] was “binds” each time.

B4: 4.5 humanized variant 10 (HC1-2 / LC2-1) (antibody, V domains shown)
VH: QVQLQESGPGLVKPSQTLSLTCTVSGFSITTGGYYWNWIRQHPGKKLEWIGYIYTSGRTSYNPSLKSRVTISRDTSKNQFSLKLSSVTAADTAVYYCADMADKGGWFAYWGQGTLVTVSS
VL: DIVMTQTPLSLPVTPGEPASISCRSSQSLFSSNTKRNYLDWYLQKPGQSPQLLIYHASYRASGVPDRFSGSGSGTDFTLKISRVEAEDVGVYYCQQHYETPLTFGQGTRLEIK
notes: Variable domains only; detected with anti-hIg secondary; also called VH1B / VL2A
In the case of B4, the binding result in [1] and in assay [5] was “binds” in each case.

B5: 4.5 humanized variant 5 (HC1-1 / LC2-2) (antibody, V domains shown)
VH: QVQLQESGPGLVKPSQTLSLTCTVSGFSITTGGYYWSWIRQHPGKGLEWIGYIYTSGRTYYNPSLKSRVTISVDTSKNQFSLKLSSVTAADTAVYYCADMADKGGWFAYWGQGTLVTVSS
VL: DIVMTQTPLSLPVTPGEPASISCRSSQSLFSSNTKRNYLNWYLQKPGQSPKLLIYHASTRLSGVPDRFSGSGSGTDFTLKISRVEAEDVGDYFCQQHYETPLTFGDGTRLEIK
notes: Variable domains only; detected with anti-hIg secondary; also called VH1A / VL2B
As for B5, the binding result in assay [1] and in assay [6] was “binds” throughout.

B6: 4.5 humanized variant 7 (HC1-2 / LC1-1) (antibody, V domains shown)
VH: QVQLQESGPGLVKPSQTLSLTCTVSGFSITTGGYYWNWIRQHPGKKLEWIGYIYTSGRTSYNPSLKSRVTISRDTSKNQFSLKLSSVTAADTAVYYCADMADKGGWFAYWGQGTLVTVSS
VL: DIVMTQSPDSLAVSLGERATINCKSSQSLFSSNTKRNYLAWYQQKPGQPPKLLIYHASTRESGVPDRFSGSGSGTDFTLTISSLQAEDVAVYYCQQHYETPLTFGQGTRLEIK
notes: Variable domains only; detected with anti-hIg secondary; also called VH1B / VL1A
As to B6, the binding result in [1] and in assay [7] was “binds” throughout.

B7: 4.5 humanized variant 3 (HC1-1 / LC1-3) (antibody, V domains shown)
VH: QVQLQESGPGLVKPSQTLSLTCTVSGFSITTGGYYWSWIRQHPGKGLEWIGYIYTSGRTYYNPSLKSRVTISVDTSKNQFSLKLSSVTAADTAVYYCADMADKGGWFAYWGQGTLVTVSS
VL: DIVMTQSPDSLAVSLGERATINCLSSQSLFSSNTKRNYLNWYQQKPGQSPKLLIYHASTRLSGVPDRFSGSGSGTDFTLTISSLQAEDVADYFCQQHYETPLTFGDGTRLEIK
notes: Variable domains only; detected with anti-hIg secondary; also called VH1A / VL1C
Take B7: the binding result in assay [1] and in assay [8] was “binds” throughout.

B8: 4.5 humanized variant 4 (HC1-1 / LC2-1) (antibody, V domains shown)
VH: QVQLQESGPGLVKPSQTLSLTCTVSGFSITTGGYYWSWIRQHPGKGLEWIGYIYTSGRTYYNPSLKSRVTISVDTSKNQFSLKLSSVTAADTAVYYCADMADKGGWFAYWGQGTLVTVSS
VL: DIVMTQTPLSLPVTPGEPASISCRSSQSLFSSNTKRNYLDWYLQKPGQSPQLLIYHASYRASGVPDRFSGSGSGTDFTLKISRVEAEDVGVYYCQQHYETPLTFGQGTRLEIK
notes: Variable domains only; detected with anti-hIg secondary; also called VH1A / VL2A
Consider B8, for which the binding result in assay [1] and in [9] was “binds” in each case.

B9: 4.5 humanized variant 6 (HC1-1 / LC2-3) (antibody, V domains shown)
VH: QVQLQESGPGLVKPSQTLSLTCTVSGFSITTGGYYWSWIRQHPGKGLEWIGYIYTSGRTYYNPSLKSRVTISVDTSKNQFSLKLSSVTAADTAVYYCADMADKGGWFAYWGQGTLVTVSS
VL: DIVMTQTPSSLPVTPGEPASISCLSSQSLFSSNTKRNYLNWYLQKPGQSPKLLIYHASTRLSGVPDRFSGSGSGTDFTLKISRVEAEDVGDYFCQQHYETPLTFGDGTRLEIK
notes: Variable domains only; detected with anti-hIg secondary; also called VH1A / VL2C
For the molecule B9, the binding result in assay [1] and in [10] was “binds” in each case.

B10: 4.5 humanized variant 2 (HC1-1 / LC1-2) (antibody, V domains shown)
VH: QVQLQESGPGLVKPSQTLSLTCTVSGFSITTGGYYWSWIRQHPGKGLEWIGYIYTSGRTYYNPSLKSRVTISVDTSKNQFSLKLSSVTAADTAVYYCADMADKGGWFAYWGQGTLVTVSS
VL: DIVMTQSPDSLAVSLGERATINCKSSQSLFSSNTKRNYLNWYQQKPGQPPKLLIYHASTRLSGVPDRFSGSGSGTDFTLTISSLQAEDVADYFCQQHYETPLTFGDGTRLEIK
notes: Variable domains only; detected with anti-hIg secondary; also called VH1A / VL1B
Turning to B10, the binding result in [1] and in assay [11] was “binds” each time.

B11: hamster anti-human H7CR antibody clone 7.8 (antibody, V domains shown)
VH: QIQLQESGPGLVKPSQSLSLTCSVTGFSITTGGYYWNWIRQFPGKKLEWMGYIYSSGRTSYNPSLKSRISITRDTSKNQFFLQLNSVTTEDTATYYCADMADKGGWFDYWGQGTLVTVSS
VL: DIVMTQSPSSLTVSAGEKVTISCLSSQSLFSSNTNRNYLSWYLQRPGQSPKLLIYHASTRLTGVPGRFIGSGSGTDFTLTVSTVQAGDLGDYFCQQHYVTPLTFGDGTRLEIK
notes: Hamster monoclonal antibody; also called H7CR7.8
For B11, the binding result in assay [12] is on record as “binds”.
